What was measured:
[1] = tested on: pleural defects in swine lungs; assay: Burst pressure of peptide hydrogels as air sealants on pleural defects of swine lungs; details: for ranking of burst pressures: 16 G pleural defects, 2.5% RADA16+0.25 M CaCl2 and 1.5% IEIK13
Text: Swine lungs were obtained from freshly euthanized pigs. An endotracheal tube was inserted through the trachea and primary bronchus into the lung of interest. Pressure was supplied to the lungs with the use of a manual endotracheal intubation pump. The trachea was tied off to prevent air leakage around the tube. The primary bronchus of the other lung was clamped to direct all airflow to the lung of interest. A manometer was used to measure the pressure of air directed into the lungs to induce expansion.
The self-assembling peptide hydrogels were comprised of Ac-RADARADARADARADA-NH2 (i.e. RADA16) (SEQ ID NO: 1), Ac-KLDLKLDLKLDL-NH2 (i.e. KLD12) (SEQ ID NO: 3), or Ac-IEIKIEIKIEIKI-NH2 (i.e. IEIK13) (SEQ ID NO: 2) with either RADA16 or KLD12 alone or mixed with 0.250 M calcium chloride. If alone, the peptides were reconstituted in deionized water. If, however the peptides were reconstituted with 0.250 M calcium chloride solution, the peptides were reconstituted first in deionized water, and subsequently, a 0.500 M solution of calcium chloride was mixed in at a 1:1 ratio.
The pleural defects were created using three different methods to measure the efficacy of the self-assembling peptide hydrogels: (1) A 16 gauge needle was used to puncture the lung and pleura, (2) A 5×5 mm area was measured and the lung and pleura were clipped using a pair of surgical scissors, and (3) A lobectomy (i.e. a complete resection of one lobe of the lung of interest). A 0.9% saline solution was streamed over the defect area and the location of the defect was identified by using the endotracheal intubation pump system to introduce air and observing the release of air bubbles.
Once the location of the defect was identified, the hydrogels were applied to the defect area via two different methods: (1) the hydrogel was applied topically by injecting through a syringe onto the defect area, and (2) the hydrogel was injected into the defect through an 18 gauge needle with overflow to cover the defect area topically. After a relaxation period of 2 min, pressure was applied through the endotracheal intubation pump until a burst pressure was identified. For any additional tests, airflow to the previously tested defect was cut off using a surgical clamp.

[2] = Gelation kinetics of pH adjusted peptides, time sweep with DMEM added; type: physicochemical
Experimental: The effect of pH level on the properties of gelation kinetics was evaluated to identify optimized pH levels for the peptides as described herein. Fast gelation kinetics of PuraMatrix® and other peptides within body fluid may generally improve its function and response time for various clinical applications. The pH level may impart response time to begin gelation when treated with simulated body fluid including but not limited to DMEM. […] A fast response time of PuraMatrix® and other peptides within body fluid may generally improve its function and response time for various clinical applications.
(§1) Time sweep tests were performed at 1 rad/sec and at 1 Pa with 20 mm plates and 500 μm gap distance. During time sweep test of PuraMatrix® 2.5% solution, DMEM was added into the chamber surrounding the measuring plates to soak PuraMatrix® solution at 0 time point. The results are shown in FIG. 9A for PuraMatrix® 2.5% solution.
as §1, with “IEIK13 1.5%” for “PuraMatrix® 2.5%”, “IEIK13 1.5%” for “PuraMatrix®”, “point and continuously data was recorded.” for “point.”, “9B” for “9A”

[3] = Rheological comparison of peptide hydrogels mixed with Ringer's Solution or indigo carmine; type: physicochemical
Text: The two gels were: (1) a combination of the self-assembling peptide with a well-known cation/anion solution, Ringer's Solution (pH 5.3), used in the medical field and (2) a combination of the self-assembling peptide with a well-known contrast agent, indigo carmine, which is a dye solution containing sulfate (anion) and sodium (cation) ions. Indigo carmine contains indigoindisulfonate sodium (C16H8N2Na2O8S2), water, and sodium citrate […] for pH adjustment. Using indigo carmine powder, a 1% solution was prepared for use in experimentation. This corresponds to 10 mg/1 ml of water. The concentration of indigo carmine solution used in experimentation was 0.00585% in water.
Indigo carmine powder was used to prepare a 1% solution in deionized (DI) water. Using IEIK13 powder, a 2 percent solution was prepared using DI water. The amount of IEIK was weighed out and the appropriate amount of DI water was added gently down the side of the container. Mixing was accomplished by vortexing for about 30 seconds, and then sonicating for 30 seconds. The solution was then centrifuged for about 10 to about 15 minutes at […]. The solution may undergo further vortexing and centrifuging until the solution is clear and without bubbles.
To obtain a final concentration of 0.00585% indigo carmine, the necessary amount of 1% IC is added to the appropriate amount of DI water to dilute 2% IEIK to 1.5% IEIK. […]

[4] = with pH adjustment, PuraMatrix 2.5%, IEIK13 1.5% solution

Substance	effect of increasing exposure time on burst pressure ([1]; 2.5% RADA16, 16 G pleural defect, varying time points)	effect of needle gauge of pleural defect on burst pressure ([1]; 2.5% RADA16 applied topically, 14, 16, 18, and 22 gauge needles)	effect of topically added NaCl solution on burst pressure ([1]; 2.5% RADA16 topically, 16 G pleural defect, 0.154 M NaCl gently massaged in)	ranking of burst pressures [1]	storage modulus response after DMEM addition [2, 4]	initial time without storage modulus increase after DMEM addition ([2]; without pH adjustment (pH 2.2), 2.5% solution) [s]	properties of tailored hydrogel ([3]; mixed with Ringer's Solution (pH 5.3))	storage modulus response after DMEM addition ([2]; without pH adjustment, 1.5% solution)	properties of tailored hydrogel ([3]; 1.5% IEIK mixed with 0.00585% indigo carmine)
Arg-Ala-Asp-Ala-Arg-Ala-Asp-Ala-Arg-Ala-Asp-Ala-Arg-Ala-Asp-Ala [PuraMatrix ®]	increased the burst pressure	negligible changes in burst pressures	slightly increased	best burst pressures	immediate storage modulus increase	13	stiffer gel with faster gelation kinetics that maintains reversibility	–	–
Ile-Glu-Ile-Lys-Ile-Glu-Ile-Lys-Ile-Glu-Ile-Lys-Ile [IEIK13]	–	–	–	best burst pressures	immediate storage modulus increase	–	–	immediate storage modulus increase	maintains stiffness, reversibility, and gelation kinetics

Source: patent US20170173105A1, “AUTOASSEMBLING PEPTIDES FOR THE TREATMENT OF PULMONARY LEAKAGE” (3-D MATRIX, LTD., priority 2014, published 2017)
